# Experimental data: paper PMC12029569, “Exploring the G-Quadruplex Formation of AS1411 Derivatives”
# Legend:
# Settings in all cases: label: 5'-Cy5; G-quadruplex
# [1] = biological target: T1, NCL RBD1,2 (UniProt P19338 307-466); assay: fluorescence titration; Hill n 0.31; SD exceeds Kd; K100: 100 mM KCl, 10 mM lithium cacodylate pH 7.2; 100 nM Cy5-oligonucleotide pre-annealed, 5 min equilibration per protein addition; temperature not stated
# [2] = biological target: T2, NCL RBD2,3 (UniProt P19338 393-560); assay: fluorescence titration; no measurable interaction; Hill fit not possible; up to 50 nM protein; K100: 100 mM KCl, 10 mM lithium cacodylate pH 7.2; 100 nM Cy5-oligonucleotide pre-annealed, 5 min equilibration per protein addition; temperature not stated
# T2 sequence (P19338 393-560): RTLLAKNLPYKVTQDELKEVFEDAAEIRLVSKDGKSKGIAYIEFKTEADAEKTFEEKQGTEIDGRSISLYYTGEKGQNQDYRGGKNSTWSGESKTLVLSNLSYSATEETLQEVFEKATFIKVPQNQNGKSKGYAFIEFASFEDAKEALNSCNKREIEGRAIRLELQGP
# [3] = biological target: T2, NCL RBD2,3; assay: fluorescence titration; Hill n 2.08; K100: 100 mM KCl, 10 mM lithium cacodylate pH 7.2; 100 nM Cy5-oligonucleotide pre-annealed, 5 min equilibration per protein addition; temperature not stated
# [4] = biological target: T1, NCL RBD1,2; assay: fluorescence titration; Hill n 0.20; SD exceeds Kd; K100: 100 mM KCl, 10 mM lithium cacodylate pH 7.2; 100 nM Cy5-oligonucleotide pre-annealed, 5 min equilibration per protein addition; temperature not stated
# [5] = biological target: T1, NCL RBD1,2; assay: fluorescence titration; Hill n 0.33; K100: 100 mM KCl, 10 mM lithium cacodylate pH 7.2; 100 nM Cy5-oligonucleotide pre-annealed, 5 min equilibration per protein addition; temperature not stated
# [6] = biological target: T2, NCL RBD2,3; assay: fluorescence titration; Hill n 0.49; SD exceeds Kd; K100: 100 mM KCl, 10 mM lithium cacodylate pH 7.2; 100 nM Cy5-oligonucleotide pre-annealed, 5 min equilibration per protein addition; temperature not stated
# [7] = biological target: T1, NCL RBD1,2; assay: fluorescence titration; Hill n 1.89; K100: 100 mM KCl, 10 mM lithium cacodylate pH 7.2; 100 nM Cy5-oligonucleotide pre-annealed, 5 min equilibration per protein addition; temperature not stated
# [8] = biological target: T1, NCL RBD1,2; assay: fluorescence titration; Hill n 0.24; K100: 100 mM KCl, 10 mM lithium cacodylate pH 7.2; 100 nM Cy5-oligonucleotide pre-annealed, 5 min equilibration per protein addition; temperature not stated
# [9] = biological target: T2, NCL RBD2,3; assay: fluorescence titration; Hill n 0.54; K100: 100 mM KCl, 10 mM lithium cacodylate pH 7.2; 100 nM Cy5-oligonucleotide pre-annealed, 5 min equilibration per protein addition; temperature not stated
# [10] = biological target: T1, NCL RBD1,2; assay: fluorescence titration; Hill n 0.37; main text prints 4.6 nM (conflict with Table S4); K100: 100 mM KCl, 10 mM lithium cacodylate pH 7.2; 100 nM Cy5-oligonucleotide pre-annealed, 5 min equilibration per protein addition; temperature not stated
# T1 sequence (P19338 307-466): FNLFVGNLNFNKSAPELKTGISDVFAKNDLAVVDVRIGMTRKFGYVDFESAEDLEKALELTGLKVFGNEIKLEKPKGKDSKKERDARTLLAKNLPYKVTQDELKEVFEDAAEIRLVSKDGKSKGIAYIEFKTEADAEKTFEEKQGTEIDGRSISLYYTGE
binder,measurement,setting,value
TGGTGGTGGTGGTTTTGGTGGTGGTGGT (structured_DNA) [Cy5-AT14T],Kd,[1],8.34 ± 13.2 nM
same,binding result,[2],no binding
GGTGGTGGTGGTTTGGTGGTGGTGG (structured_DNA) [Cy5-AT14-T1],Kd,[3],2.16 ± 0.37 nM
same,Kd,[4],1.4 nM
GGTGGTGGTGGTTGGTGGTGGTGG (structured_DNA) [Cy5-AT14-T2],Kd,[5],0.01 ± 0.01 nM
same,Kd,[6],5.37 ± 7.21 nM
TGGTGGTGGTGGTTGGTGGTGGTGGT (structured_DNA) [Cy5-AT14T-T2],Kd,[7],1.48 ± 0.2 nM
same,binding result,[2],no binding
TGGTGGTGGTGGTTTGGTGGTGGTGGT (structured_DNA) [Cy5-AT14T-T1],Kd,[8],3.39 ± 0.58 nM
GGTGGTGGTGGTTTTGGTGGTGGTGG (structured_DNA) [Cy5-AT14],Kd,[9],0.08 ± 0.01 nM
same,Kd,[10],0.46 ± 0.12 nM
